A short description of this series: protein stability index of a GFP-peptide fusion (GPS, HEK-293T) (PSI 1-6); higher = more stable.
Where [1] appears, read: treatment: DMSO, c terminus: a fixed tail appended.
[2] abbreviates: treatment: MLN4924 1 uM, 8 h, c terminus: a fixed tail appended.

This passage reports protein stability index results from the supplement of paper PMC10567573.

± gives the standard deviation.
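Also: 24-mer peptide tiles fused after GFP, lentivirally expressed, FACS-sorted into six equal bins by GFP/DsRed ratio, decoded by Illumina sequencing, PSI is the read-weighted mean bin number.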

As for VCEHLNLLEKDYFGLTYRDAENQK [EPB41L3], the protein stability index was 4.91 ± 0.31 under setting [1] and 4.69 ± 0.23 under setting [2].

VCEVQVHGGSLLGKKYNWSCDDLM [GFOD1] came in with a protein stability index under setting [1] of 2.58 ± 0.16 and a protein stability index under setting [2] of 2.35 ± 0.32.

Turning to VDGRLTYPTCGIGYPVSSAFAFQN [SASS6], the protein stability index is, setting by setting: under setting [1], 2.37 ± 0.23; under setting [2], 2.38 ± 0.37.

In the case of VDLSRILNEMRDQYEKMAEKNRKD [KRT17], the protein stability index is, setting by setting: under setting [1], 3.52 ± 0.24; under setting [2], 3.76 ± 0.36.

Take VEGEQQAWFGFAGTPGYLSPEVLR [CAMK2A]: the protein stability index runs as follows: under setting [1], 3.48 ± 0.21; under setting [2], 3.49 ± 0.4.

As to VEGRHLYVLEFSDHPGIHEPLEPE [CPN1], the protein stability index under setting [1] turned out to be 3.04 ± 0.23 and the protein stability index under setting [2] came to 3.28 ± 0.33.

With VERAAAAAAAAAGGDAGHAPFPPP [C6orf223], the protein stability index reads like this: under setting [1], 5.08 ± 0.65; under setting [2], 5.22 ± 0.4.

As for VFKCSVSRETECSRVGKQSFIITL [CARM1], the protein stability index is, setting by setting: under setting [1], 2.65 ± 1.1; under setting [2], 2.61 ± 0.67.

VGGKIVGSLCAIAGVLTIALPVPV [KCNA4] registered a protein stability index under setting [1] of 3.78 ± 0.78 and a protein stability index under setting [2] of 2.76 ± 0.46.

With VGRGEVVTVRVPTHEEGSYLFWEF [ACBD3], the protein stability index is, setting by setting: under setting [1], 2.64 ± 0.44; under setting [2], 2.34 ± 0.26.

Take VGRLYAVYDQAVSIFYDLPQGSGF [SMAD6]: the protein stability index by setting is: under setting [1], 2.54 ± 0.47; under setting [2], 2.39 ± 0.65.

Turning to VGSVALTALVTVSSEEFEDKWFRK [C8orf76], the protein stability index by setting is: under setting [1], 2.26 ± 0.19; under setting [2], 2.35 ± 0.21.

The sequence VIAKWDYTAQQDQELDIKKNERLW [NCK2] registered a protein stability index under setting [1] of 3.28 ± 0.093 and a protein stability index under setting [2] of 3.4 ± 0.32.

As to VIASGSSVGHNNLIPLANTGIVNH [CARM1], the protein stability index under setting [1] is 3.11 ± 0.099 and the protein stability index under setting [2] came to 3.19 ± 0.23.

Take VIEEAKTAFLLNIQLFEELQELLT [HMOX1]: the protein stability index is 2.08 ± 0.32 under setting [1] and 2.38 ± 0.2 under setting [2].

As for VIVWDGDTTRQVQRISCFQSTVKC [WDR41], the protein stability index runs as follows: under setting [1], 2.31 ± 0.31; under setting [2], 2.01 ± 0.11.

Regarding VKSRGKRLALEKVPKVGQRFNRIG [PI4K2A], the protein stability index is 3.23 ± 0.49 under setting [1] and 3.46 ± 0.21 under setting [2].

Take VLMAVSVHSERKLLPLVTLCDGNP [SCNN1D]: the protein stability index is, setting by setting: under setting [1], 2.4 ± 0.38; under setting [2], 2.32 ± 0.47.

Regarding VMSEGLGMRYAFIGPLETMHLNAE [CRYL1], the protein stability index was 2.05 ± 0.23 under setting [1] and 2.05 ± 0.4 under setting [2].

As to VNGDGSRENGNNSSDKVRGIETLE [PHTF1], the protein stability index was determined as 5.24 ± 0.32 under setting [1] and 5.22 ± 0.28 under setting [2].

VNIEWHRFRFGQDQLLLATGLNNG [WSB1] returned a protein stability index under setting [1] of 2.76 ± 0.41 and a protein stability index under setting [2] of 2.58 ± 0.45.

In the case of VPRAGPLTVNTEAQQLLREFEEAT [FOXJ1], the protein stability index turned out to be 4.96 ± 0.19 under setting [1] and 4.9 ± 0.26 under setting [2].

In turn, VPRPGTPQSPPSCRAPPPEARGIR [FCHO1] had a protein stability index under setting [1] of 4.85 ± 0.42 and a protein stability index under setting [2] of 4.85 ± 0.14.

In the case of VPVHSFASLNIKTTVPEVEPPQDS [PRPH], the protein stability index is 4.97 ± 0.2 under setting [1] and 4.99 ± 0.073 under setting [2].

On to VPYHIARIPYTKSQTEAHYSCQSK [P2RY14], for which the protein stability index turned out to be 3.47 ± 0.17 under setting [1] and 3.53 ± 0.36 under setting [2].

VQDEFLDTPCTNRGLPLLKTDFGS [DLC1]: the protein stability index by setting is: under setting [1], 3.85 ± 0.43; under setting [2], 3.91 ± 0.41.

Regarding VQDKTPLYSQLLQAYKWSNKLQYH [MED27], the protein stability index reads like this: under setting [1], 2.18 ± 0.27; under setting [2], 2.19 ± 0.25.

In the case of VQEAVLDKWVNDPHRMDRRLLALI [GOLPH3], the protein stability index is 2.29 ± 0.18 under setting [1] and 2.52 ± 0.17 under setting [2].

Turning to VQGLEGIKMAMVACGDAFTVAIGA [NEK8], the protein stability index came out at 2.79 ± 0.71 under setting [1] and 2.95 ± 0.46 under setting [2].

Regarding VQHERIHTGDKPYKCAECGKSFCH [ZNF8], the protein stability index reads like this: under setting [1], 4.54 ± 0.33; under setting [2], 4.68 ± 0.16.

In the case of VQKRARSGPQPRLPPCLLPLSPPT [TRIB3], the protein stability index is, setting by setting: under setting [1], 3.35 ± 0.2; under setting [2], 3.46 ± 0.23.

Consider VQRSPWLMMRMGILGRGLQEYQLP [TCAP], for which the protein stability index runs as follows: under setting [1], 2.3 ± 0.17; under setting [2], 2.21 ± 0.48.

As to VRCGLLGSLGPVPVLRFDALWQVL [TRIM14], the protein stability index is, setting by setting: under setting [1], 2.29 ± 0.39; under setting [2], 2.29 ± 0.49.

Consider VRERILGADNIDVSHPIIYRGAVY [FEM1B], for which the protein stability index was 2.13 ± 0.29 under setting [1] and 2.57 ± 0.32 under setting [2].

In the case of VRFLEQQNAALRGELSQARGQEPA [PRPH], the protein stability index was 4.57 ± 0.27 under setting [1] and 4.41 ± 0.18 under setting [2].

Sequence VSPGVLVLLAVLPVLLLQITVGLV [MOG] yielded a protein stability index under setting [1] of 2.92 ± 0.39 and a protein stability index under setting [2] of 2.96 ± 0.51.

Regarding VSPRRIFANGHTYHINSISVNSDC [PPP2R2C], the protein stability index reads like this: under setting [1], 2.67 ± 0.27; under setting [2], 2.87 ± 0.19.

Take VSVFIGVLIDLWKITKVMDVRLDR [CLPTM1]: the protein stability index came out at 3.19 ± 0.1 under setting [1] and 2.97 ± 0.35 under setting [2].

In turn, VTSIPSVSDSLTWREFHYIQSKLG [STEAP1] yielded a protein stability index under setting [1] of 2.66 ± 0.24 and a protein stability index under setting [2] of 2.69 ± 0.18.

Consider VVDIFQTVKMLRTQRPAMVQTEDQ [PTPRD], for which the protein stability index is, setting by setting: under setting [1], 3.23 ± 0.32; under setting [2], 3.06 ± 0.27.

For VVLGNIIKKKGWRRSSLVITTKIF [KCNAB2], the protein stability index was 2.86 ± 0.34 under setting [1] and 2.74 ± 0.55 under setting [2].

As for VVLTFITPMLNPLIYTLKNAEMKS [OR4A15], the protein stability index runs as follows: under setting [1], 3.22 ± 0.073; under setting [2], 2.99 ± 0.63.

WAEIAKMLPGRTDNAVKNHWNSTI [MYBL2]: the protein stability index came to 2.18 ± 0.28 under setting [1] and 2.16 ± 0.18 under setting [2].

WCLRVNPKGLDDESKDYLSLYLLL [SPOPL]: the protein stability index amounted to 2.96 ± 0.41 under setting [1] and 3.08 ± 0.69 under setting [2].

As for WEWSPAGLQSYQQALLRISLDKVQ [SERTAD3], the protein stability index is, setting by setting: under setting [1], 2.48 ± 0.58; under setting [2], 2.49 ± 0.69.

Consider WHDVQVSSAYVKTSEKLGEWNEKV [TPD52L2], for which the protein stability index came out at 3.64 ± 0.26 under setting [1] and 3.8 ± 0.24 under setting [2].

On to WKYFKGNFYYFSLIPKTWYSAEQF [CD207], for which the protein stability index amounted to 3.12 ± 0.47 under setting [1] and 2.78 ± 0.71 under setting [2].

As to WNDAPCDKTFLFICKRPYVPSEP [CD207], the protein stability index amounted to 1.99 ± 0.96 (treatment: DMSO, c terminus: native) and 2.13 ± 0.13 (treatment: MLN4924 1 uM, 8 h, c terminus: native).

With WPLRGKREAMLEMLLQHQICKEVQ [SPAG8], the protein stability index under setting [1] was 2.17 ± 0.4 and the protein stability index under setting [2] amounted to 2.11 ± 0.24.

For the sequence WQYLSGGKVKLQQNPGKFDELDMS [TBC1D10A], the protein stability index by setting is: under setting [1], 3.16 ± 0.32; under setting [2], 3.35 ± 0.26.

As to YALDMQQSNLEPLSPMTASSFLSF [FEM1A], the protein stability index turned out to be 2.6 ± 0.23 under setting [1] and 2.47 ± 0.085 under setting [2].

Take YCRLKKCLKVGMRREAVQRGRMPP [NR2F2]: the protein stability index was found to be 2.84 ± 0.39 under setting [1] and 2.77 ± 0.26 under setting [2].

On to YDSQPQDVLGIRQLERPLPLTSVC [TRAF3IP2], for which the protein stability index is, setting by setting: under setting [1], 3.68 ± 0.065; under setting [2], 3.74 ± 0.23.

On to YENFLEDKALMIAMEYAPGGTLAE [NEK8], for which the protein stability index reads like this: under setting [1], 3.54 ± 0.13; under setting [2], 3.98 ± 0.2.

In the case of YERLARILLQEIPIRSISLRSCYF [FBXO39], the protein stability index under setting [1] turned out to be 2.92 ± 0.28 and the protein stability index under setting [2] was 2.56 ± 0.26.

Regarding YGSCYTVDGVWTAQRPGITHGVGL [SCNN1D], the protein stability index was 2.69 ± 0.5 under setting [1] and 2.2 ± 0.15 under setting [2].

Turning to YIMAFDIKSEDMLKILKPSIPLER [FBXO33], the protein stability index under setting [1] is 2.34 ± 0.44 and the protein stability index under setting [2] is 2.67 ± 0.4.

In the case of YISHRELGDCMRTLGYMPTEMELL [CABP4], the protein stability index was determined as 2.27 ± 0.34 under setting [1] and 2.48 ± 0.43 under setting [2].

With YKKGRMMKDISNLEENDETRFILS [SLC6A17], the protein stability index was determined as 3.35 ± 0.29 under setting [1] and 3.09 ± 0.39 under setting [2].

For the sequence YLDKAPPPGLPAETIKDLMRQFLR [CDK4], the protein stability index by setting is: under setting [1], 4.45 ± 0.2; under setting [2], 4.23 ± 0.39.

Regarding YLGSLQYRVWKKMLASVESVPFSF [TRIM35], the protein stability index worked out at 2.93 ± 0.63 under setting [1] and 2.33 ± 0.48 under setting [2].

On to YNNRGQIKYFRVDFYEAMDDYTSA [TTC32], for which the protein stability index was determined as 2.15 ± 0.29 under setting [1] and 2.35 ± 0.24 under setting [2].

With YPEQSKGFHKAGSMLPPVNFSIVP [SPATS1], the protein stability index was determined as 2.65 ± 0.5 under setting [1] and 3.06 ± 0.69 under setting [2].

As for YQDMIYAVGGRDDTTELSSAERYN [KLHL20], the protein stability index is 2.91 ± 0.66 under setting [1] and 3.52 ± 0.51 under setting [2].

YQELLNVKMALDIEIATYRKLLEG [PRPH] returned a protein stability index under setting [1] of 2.22 ± 0.22 and a protein stability index under setting [2] of 2.43 ± 0.081.

YRLLKCAPRGKNGFTPLHMAVDKD [FEM1A] returned a protein stability index under setting [1] of 2.84 ± 0.22 and a protein stability index under setting [2] of 2.96 ± 0.14.

As to YRQDDPSYRSFHSGGYGQDALGMD [CTNNB1], the protein stability index was found to be 3.89 ± 0.35 under setting [1] and 4.03 ± 0.14 under setting [2].

With YSHLAYNNYRLGGNPSTNSRVTAS [SMARCE1], the protein stability index amounted to 3.3 ± 0.34 under setting [1] and 3.35 ± 0.18 under setting [2].

For the sequence YSIGRSVEGRHLYVLEFSDHPGIH [CPN1], the protein stability index by setting is: under setting [1], 2.07 ± 0.23; under setting [2], 2.07 ± 0.12.

As for YSLLPQSTAPGLFLVSTHTGEVRT [PCDHGC5], the protein stability index is 3.07 ± 0.14 under setting [1] and 3.07 ± 0.29 under setting [2].

In the case of YSQGRLSEAEEALYLIAKRNRKLK [SLC22A15], the protein stability index came out at 2.81 ± 0.2 under setting [1] and 3 ± 0.063 under setting [2].

As to YVRMVFLALYVLFLADEEFDVVVC [ALG2], the protein stability index is, setting by setting: under setting [1], 3.1 ± 0.71; under setting [2], 2.93 ± 1.
